Experimental findings from publication PMC3528264 are described below.

For the test, the target named is AflJ (A. parasiticus BN9), yeast two-hybrid fusion (A. parasiticus) (UniProt O42716). Nature of the test: two-hybrid.
UniProt O42716, sequence (O42716 whole entry, the tested form may be a part): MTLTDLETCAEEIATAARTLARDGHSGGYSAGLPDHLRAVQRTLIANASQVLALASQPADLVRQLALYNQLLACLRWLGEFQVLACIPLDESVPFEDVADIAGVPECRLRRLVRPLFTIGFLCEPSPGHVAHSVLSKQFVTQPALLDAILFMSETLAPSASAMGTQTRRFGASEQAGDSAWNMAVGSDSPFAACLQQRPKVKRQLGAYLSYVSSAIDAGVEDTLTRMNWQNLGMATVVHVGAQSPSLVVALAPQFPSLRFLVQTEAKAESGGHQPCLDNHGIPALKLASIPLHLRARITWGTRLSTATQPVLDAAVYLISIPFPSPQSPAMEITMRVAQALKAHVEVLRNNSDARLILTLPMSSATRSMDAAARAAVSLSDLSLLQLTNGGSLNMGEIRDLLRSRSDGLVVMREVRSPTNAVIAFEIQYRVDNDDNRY

Substance “AflR, Gal4 activation domain fusion (pGADT7) (from UniProt P43651 1-444) (natural protein)” registered a colonies on QDO of 125 colonies.
